One block for each molecule: values may come before it.
Key:
[1] = target: human ornithine decarboxylase N125K/M140K double mutant (human) (UniProt P11926)
[2] = target: human ornithine decarboxylase S135N mutant (human) (UniProt P11926)
[3] = target: human ornithine decarboxylase F133C mutant (human) (UniProt P11926)
[4] = target: human ornithine decarboxylase, wild type (human) (UniProt P11926)
[5] = target: human ornithine decarboxylase N125K/M140K double mutant (human) (UniProt P11926); remark: listed apart in the source
[6] = target: human ornithine decarboxylase N125K mutant (human) (UniProt P11926)
[7] = target: human ornithine decarboxylase M140K mutant (human) (UniProt P11926)
[8] = target: human ornithine decarboxylase N126V mutant (human) (UniProt P11926)
[9] = target: human antizyme inhibitor K125N/K140M double mutant (human) (UniProt O14977); test: AUC; sedimentation velocity, 42,000 rpm; ODC or AZI fixed at 0.3 mg/mL with AZ at 0.015, 0.03, 0.06 or 0.09 mg/mL; data globally fitted with SEDPHAT to the A+B<->AB hetero-association model
[10] = target: human antizyme inhibitor K140M mutant (human) (UniProt O14977); test: as above
[11] = target: human ornithine decarboxylase, wild type (human) (UniProt P11926); test: as above
[12] = target: human ornithine decarboxylase N125K/M140K double mutant (human) (UniProt P11926); test: as above
[13] = target: human antizyme inhibitor, wild type (human) (UniProt O14977); test: as above
[14] = target: human ornithine decarboxylase N125K mutant (human) (UniProt P11926); test: as above
[15] = target: human antizyme inhibitor K125N mutant (human) (UniProt O14977); test: as above
[16] = target: human ornithine decarboxylase M140K mutant (human) (UniProt P11926); test: as above
[17] = target: human antizyme (human) (UniProt P54368)
[18] = target: the molecule itself; test: AUC; sedimentation velocity, 42,000 rpm; continuous size distribution (SEDFIT) of ODC or AZI without AZ

Chain of human antizyme inhibitor K125N mutant (human) (O14977 whole entry K125N): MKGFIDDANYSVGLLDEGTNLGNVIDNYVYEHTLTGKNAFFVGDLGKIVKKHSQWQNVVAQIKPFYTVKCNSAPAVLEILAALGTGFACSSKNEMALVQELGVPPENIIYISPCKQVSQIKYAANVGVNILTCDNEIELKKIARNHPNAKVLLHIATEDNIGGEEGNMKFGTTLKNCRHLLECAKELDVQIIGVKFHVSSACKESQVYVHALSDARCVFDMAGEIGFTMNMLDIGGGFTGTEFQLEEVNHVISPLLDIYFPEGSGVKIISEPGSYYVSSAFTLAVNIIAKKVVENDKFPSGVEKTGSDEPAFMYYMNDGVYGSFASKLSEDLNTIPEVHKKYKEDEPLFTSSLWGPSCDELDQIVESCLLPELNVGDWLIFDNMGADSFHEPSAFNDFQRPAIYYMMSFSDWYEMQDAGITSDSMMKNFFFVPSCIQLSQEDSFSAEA
Chain of human antizyme inhibitor K125N/K140M double mutant (human) (O14977 whole entry K125N/K140M): as the sequence (O14977 whole entry K125N) above, with K140M counted along it
Chain of human antizyme inhibitor K140M mutant (human) (O14977 whole entry K140M): as the sequence (O14977 whole entry K125N) above, with N125K, K140M counted along it
Chain of human antizyme inhibitor, wild type (human) (O14977 whole entry): as the sequence (O14977 whole entry K125N) above, with N125K counted along it

residual enzyme activity of AZ-inhibited ODC N125K/M140K on rescue by high concentrations of AZI (AZ:ODC monomer ratio 4.0) [1]: 20% | IC50,AZ: concentration of AZ required for 50% inhibition of ODC enzyme activity (ODC 20 µg/mL) [2]: 490 nM | IC50,AZ: concentration of AZ required for 50% inhibition of ODC enzyme activity (ODC 20 µg/mL) [3]: 450 nM | IC50,AZ: concentration of AZ required for 50% inhibition of ODC enzyme activity (ODC 20 µg/mL) [4]: 250 nM | IC50,AZ: concentration of AZ required for 50% inhibition of ODC enzyme activity (ODC 20 µg/mL) [5]: 80 nM | IC50,AZ: concentration of AZ required for 50% inhibition of ODC enzyme activity (ODC 20 µg/mL) [6]: 100 nM | IC50,AZ: concentration of AZ required for 50% inhibition of ODC enzyme activity (ODC 20 µg/mL) [7]: 130 nM | IC50,AZ: concentration of AZ required for 50% inhibition of ODC enzyme activity (ODC 20 µg/mL) [8]: 440 nM | Kd [9]: 180 nM | Kd [10]: 110 nM | Kd [11]: 210 nM | Kd [12]: 20 nM | Kd [13]: 20 nM | Kd [14]: 100 nM | Kd [15]: 160 nM | Kd [16]: 140 nM
Molecule: human antizyme (from UniProt P54368 1-228) (natural protein)

residual enzyme activity of AZ-inhibited ODC WT (AZ:ODC monomer ratio 4.0) with increasing AZI concentrations [17]: > 90%
Molecule: human antizyme inhibitor, wild type (from UniProt O14977 1-448) (natural protein)

B1: human ornithine decarboxylase, wild type (enzyme, UniProt P11926 1-461, looked up)
chain: MNNFGNEEFDCHFLDEGFTAKDILDQKINEVSSSDDKDAFYVADLGDILKKHLRWLKALPRVTPFYAVKCNDSKAIVKTLAATGTGFDCASKTEIQLVQSLGVPPERIIYANPCKQVSQIKYAANNGVQMMTFDSEVELMKVARAHPKAKLVLRIATDDSKAVCRLSVKFGATLRTSRLLLERAKELNIDVVGVSFHVGSGCTDPETFVQAISDARCVFDMGAEVGFSMYLLDIGGGFPGSEDVKLKFEEITGVINPALDKYFPSDSGVRIIAEPGRYYVASAFTLAVNIIAKKIVLKEQTGSDDEDESSEQTFMYYVNDGVYGSFNCILYDHAHVKPLLQKRPKPDEKYYSSSIWGPTCDGLDRIVERCDLPEMHVGDWMLFENMGAYTVAAASTFNGFQRPTIYYVMSGPAWQLMQQFQNPDFPPEVEEQDASTLPVSCAWESGMKRHRAACASASINV
notes: Ornithine decarboxylase (EC 4.1.1.17), human; Homodimer without AZ (S about 6); dissociates to form a heterodimer with AZ; Gene sub-cloned into pQE30; also called ODC; source: E. coli JM109, purified (Ni-NTA Sepharose)
stoichiometry N [18]: 2

From publication PMC3084279, “Critical Factors Governing the Difference in Antizyme-Binding Affinities between Human Ornithine Decarboxylase and Antizyme Inhibitor” (PLoS ONE, 2011)
